assay: soluble fraction after stress (log2 fold change); higher = more stays soluble; pooled small domains, quantitative proteomics; details: stress: 50 degC
In short: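 Pooled custom libraries of small protein domains were each held under stress at 50°C. The read-out, high-throughput quantitative proteomics, tracked how much of each protein stayed soluble. This is reported as a base-two log fold change used to indicate aggregation propensity. Higher values mean more protein remains in solution.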

Sequence	soluble fraction (log2)
HMENYGEAITYIHGMIEDSSEKMLAASKALKVNANTLIKFMKDPYSVAAHIRDRIVENLANLEKAVKAI	0.075
HMDFYPARVKWFNKSKGFGFANIFKSNDDIFLHIETLKRSGLSDLETGEAIVLTVTEGPRGKMADTILTWD	-0.433
HMTSVMAWRLITPIPQHGIIRSSQVQLQKHAPNSLKFLDVDSSPVGKQVKHGIAAGHWLSKDDFTE	-0.937
HMLPDAESFSYEVPYTKGDGGTYNYEGKIKAQNADAARDEIIRQAQVYFQMNPQFTPDYPSTTITSLD	0.171
HMDDFPLKRGSKGNRVTLLQNALVKKYGAGILPKYGVDGMFGKEVEAALVHAKIPTTINEANYTKIV	0.0897
HMGVEVPRGDGSTVVRVRAGSSLADFAERIGADPAALITVLFRMGEMATVNQSLDEDTFKLLGAELGYDVQ	-0.691
HMDHFFSKYDSIVNHTVQKKETLFGISKKYGLTINEVIKFNPGIQIDKLKRRSVLIIPLMKKN	-0.917
HMQKPWFYESSGQRKGGFSEQEMVGLITDGEITHGAIVWRNGLSDWTKLEQTELAAHLDKTA	-0.249
HMLMKKTITHEIELLEFLKQIFPQSSTNKLRKMLSNGRIKINSEIVHKAKYKLQENDTFELLDNPT	-0.488
HMPEAITLRDLKTYSKQAASGYLDDHQLVLVEKEAHSEDVPEGQVIKQKPGAGASVKPGDKVEVTFSLGPE	0.0136
HMQNSPVFAASDIEDIRVGMTVEHQRFGQGRVMSIEGNGPNKKTTVLFEGIGEKQLLLQYAKLKIV	0.157
HMAEKVIVVADSITVGELAEKLNLPVTNLIGELFKNGIVSTINQRIDFETASIIVEELGLDVELERK	-0.0299
HMIQIGEQIRYYRTKIGISQEALALMADINPAYIGQIERGIKSPTVNTIKKIANAMGINLHTLFT	-2.91
HMKNSKIVIQKRHNHILELLKQNRTMDVTVLAERLGVTGATIRRDLKKLEQEGTIVRSFGKVSFVG	-0.867
HMIAVLEEGSHFRAVNDVTGKPFGPEMVIKNGQVTAVGKTISTKPKNLLGKKEGTKFVISGKQYVIKDI	-0.00494
HMNIIATHTVPAIEQKIRLQEYAISIFPQINSRSALKKAIAKKLVLLDGERASTADWIQPGQKIELLEDK	-0.337
HMTEDQDWAIFKQKLKAQTEIDLDLYKEPQMKHRIKNLIQNAGFDSYVQYFDYVYLNQDRLAAFLENLTV	0.0704
HMSKRIFPNEFQRNSPDAMVMLDKMNLSRINVDPLTKSLTLNGGGSVKTLLNGREVSAVEIAALSP	0.0444
HMQRVSDKVAAQLRVLVQEQQLKPGDRLPAERALAVQLGVSRTALREAIAQLASQGLLTARVGGGTYVAEP	-0.307
HMDVKQSAAGVAGRIRFELNRTLTGQGHEKFTSASQAIGPRPAAELARRLFNSGSVVGVHVFANIVTVDLL	-0.051
HMITPKQTAETLGIATSTLRRWASEFEPFLSLRTGVKRTYTTDDITTLKRVKDLFAQGLKTEQVREAL	-0.161
HMTLPELTDRELQILQLLSVGNSSQKIAKQLNISTHTVSTHRKQLLRKLGAQNGADLIRRAQKLGIL	-0.44
HMEATILTATPEAAGQRLDAFLAETLPELTRSAAQRLIAEGQVAVDGKIPTKSLKLAGGETVSVRLPEPE	0.275
HMGLDERNLKLFAASLLEQAGKKITESTMTYLLDKTGSDMENIQNEVEKIIGYTMNHTVVTTEDIDAV	-0.271
HMDDAVSHPDAGHIVTVTKVSADGTAEVMYRGASWRAKTADGSPLTAGSARIVRVDGAALVVEP	0.052
HMNSKMTYSDLIGNIEQGNVSSVELASDGKSATVTLTDNSQKQVNIPSLDSFVTYVQDHIKAGTLSVEE	0.000127
HMTQEFIVPKVTGYTVEDAMNLSGVKDVFEITVDSTEKSDQPAGIILFQDPKDGSSRKSDLVIHVVVSAGS	-0.137
HMKNSAAKETILAFLKKNGGELFTQMQIIEKFQKMIPAPVLRITLEELLNKGQVEITSKGKYYLSVKGS	-0.587

Sequence	soluble fraction (log2)
HMIKEVEYSQFLQMTDQGEVGKVEINEQENSILFTDKAEKNIYKTGMVEDAELSMRLYEAGIPFSGQI	-0.0245
HMKQQTRAELLDEFAKAHAERGLYFNRDYEQGEIQALQPDKAREYLQSALEARTERQQASEQDR	0.274
HMAIQGVRLYERTLETGDPWLDRPLSTLSTGTRLIILVRRGGDVLIPKGDTVLLAGDTLVINDS	-3.24
HMNYTYTVPEGIRYLRADKALALAFPDHSRTALQRAFDSGLVTLRGVAIKRDQSVTALDTLEFAMPDI	-0.81
HMPGLSQAEAQSLLIAYLAQQGRTLELIPLGQSGDVWRFSGRESDGTVVSFFMVSRTDGTISEVPVPP	-0.62
HMVKDYIQVTVNKEPVILKGKKDYIFIDIFNYIEFDLTIPKGSLYLLLNGKNAGYHDKLLDGDVIELGW	-1.72
HMKRIHLSDEEKTDLESLHYSSNDGKQRDRIKAVLLRSEGWTVPMISQALRIHETTVTRYLNDYREGKLKN	0.00871
HMTEFWTGPITTVTKANFADWTLDTNQDRITANVWLTRADSKGLFNITPGKETAFDIVDYLSPLDTEWA	-0.188
HMRTGSSVLVGLVAPVRLGATGAPKVFADGALWEARSAVPLNDGQLVEITGTDGLTVLVKPSA	0.0494
HMQYKVMDVTVDGNPVIEFQNLNSKIKWIENNPDAIIQNIKTSSFEADQKRIVGTSRGPFWIVIKPDF	-0.144
HMPEKKKYGDFVSMTEEEYGKLVSEYGQEAAKRMVEILNNYKGATGKPYKSDYLAILNWVVKRIKEE	0.0441
HMAMSAGEVVERIREHVGHPATIKELMRVLAIPNEERYRFRRRIKQLVEAGELIRIRGNRYGLADR	-1.85
HMRQYKEMPYRLFLIHLGKGLVDEVELSDKAKLTGKLKNGKIFITDNPRTENFKEQLLLHDVKVKEG	0.12
HMKQETLNEIGTKIRKLRESKNLSIQEFADKLEMEYNNVIRIEKGRTNFTIGTLVKIANSLEVNLKDI	-0.78
HMGLRERLLNYIAYKGIDKATLERKSGLSNDAVNKMGDNTRVSTLDKISNAFPDINIAWLKTGVGEMILG	-0.113
HMINEDMTQSDRMELWGRLIDVVEDWLAEKGITEEDIPNEEREGVEDAAIIFGDDYDYLADRFSEVIGISR	-1.18
HMDHVEDRMVLEVVLKKLTEEERRIVMLHAVSGLKHREIAKALDIPLSTVLSKYKRTLKKLEAYLMEME	-1.78
HMTSLVRTSNLDGFEPLARSIGVDPVMELMRFGIPPDALIRENMFISFIGFIRLLEHTALAG	0.103
HMRDSWNEATKEKRYTEAYDALNSALKKTPATPHALSDALWIARELGRTNEEVQRLEWRLYALLTWIS	0.0708
HMNIAESIRKYRKASGLTQEEMAKRLGVTTPAVSKWENGITNPDIALLAPIARLFHISVDTLLSYR	-0.403
HMHDWDITTAAKPEKIFELFSDIPVLETGLKHGTVTLLIDHEPYEVTTFRVDGNYTDGRHPDSVAFT	-0.0484
HMLSVNREQVEQSLKQEWGFDYDKNLRAAQRAIDVYGDDDLKLLLNGPTGNDPAIVKLFARLGGEVTEE	-0.00909
HMAEWIYGKNVVKQSIEEGMVLKLILQRKEDPLFVLAQEKQIPVEILDRHKMTSLVKSDRHQGVAAQI	-0.477
HMTASVTDAMFELIDELPKLGKTSFRQLTADLVDRLQVVVTFLAVLELYKQGHVELDQSERFGDITVVWTG	-0.0255
HMEALASESVKDKIRKIIDSEDPSRPMSDQRIKEMLKAANIDIARRTVTKYREAMNILSSTKRRQV	-0.272
HMEDEFNQIASQKNVPSFLGKGKKEVINIAKKNKIKINLSGNGYVKRQIPAPGEVISHLDEVTIFLEPG	0.396
HMSIMNEQIREILNQQVTKTSKIQQLLLLGLTRRQVADLVTNGNYGFVQNVYRNMLDAGIFTP	-0.5

— the domain aggregation screens of Martell et al. (2025)
